For test [1], the target named is T1, Human-TNFR2-His (human, UniProt P20333 23-257).
T1 construct: Bought protein; also called human TNFR2 protein; TNFR2 protein; not shown: His tag
T1 sequence (looked up): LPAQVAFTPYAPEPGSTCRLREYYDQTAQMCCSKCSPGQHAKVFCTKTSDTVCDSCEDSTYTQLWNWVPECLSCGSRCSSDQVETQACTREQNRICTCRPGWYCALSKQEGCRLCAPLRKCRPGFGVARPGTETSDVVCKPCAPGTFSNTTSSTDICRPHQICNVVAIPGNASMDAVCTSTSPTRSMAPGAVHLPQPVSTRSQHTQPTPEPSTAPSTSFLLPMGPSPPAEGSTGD
The test is described as follows: ELISA: Human-TNFR2-His coated (0.1 ug/mL), antibody titrated, goat anti-human IgG Fc detection (Example 2). The procedure: (§1) Human-TNFR2-His (manufacturer: SINO, CAT: 10417-H08H, LOT: LC15NO0412) was diluted to 0.1 μg/mL with a coating solution (1×PBS, pH7.4), and coated in 96-well ELISA plate at 100 µL/well overnight at 4° C. The coating solution was poured off. Each well was washed with 1×PBST at 300 μL, washed 4 times with a plate washer, and patted dry on a flat paper. It was blocked with 3% skim milk powder at 300 μL/well, and incubated at 37° C. for 1 h. The blocking solution was poured off, washed 4 times with a plate washer, and patted dry on a flat paper. Negative control and positive control were set up. […] The positive control and antibody were diluted to 10 μg/mL with 3% skim milk powder as the starting concentration, and then diluted by 3-fold gradient (11 gradients in total), and a blank well was set up and only the diluent was added. It was incubated at 37° C. for 1 h at 100 μL/well. The liquid in the well was discarded, washed 4 times with a plate washer, and patted dry on a flat paper. Goat anti-human IgG Fc was diluted with 3% skim milk powder at 1:10000, and incubated at 37° C. for 1 h at 100 μL/well. It was washed 6 times with a plate washer, and patted dry on a flat paper. TMB color developing solution was added at 100 μL/well, and wrapped with aluminum foil. Color development was performed at 37° C. in the dark for 8 min. Termination solution 1M HCl was added to terminate the color development reaction at 100 μL/well. Readings were taken at 450 nm on an ELISA reader.
(ELISA stands for enzyme-linked immunosorbent assay.)

Test [2] deals with T2, Human 4-1BB His (human, UniProt Q07011 24-186).
T2 construct: Bought protein; lots 198-2146F1-W6 and 2407c-214FF1-YC; also called human 4-1BB protein; 4-1BB protein; not shown: His tag
T2 sequence (Q07011 24-186 limits assumed): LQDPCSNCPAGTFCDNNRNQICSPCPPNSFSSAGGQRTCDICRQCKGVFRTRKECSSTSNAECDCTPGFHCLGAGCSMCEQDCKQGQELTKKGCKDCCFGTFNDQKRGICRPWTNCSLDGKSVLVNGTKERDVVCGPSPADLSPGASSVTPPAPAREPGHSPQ
The test can be described thus: ELISA: Human 4-1BB His coated (0.2 ug/mL), antibody titrated, goat anti-human IgG Fc detection (Example 3). As for the experimental part: (§2) Human 4-1BB His (manufacturer: Acro, CAT: 41B-H5258, LOT: 198-2146F1-W6) was diluted to 0.2 μg/mL with a coating solution (1×PBS, pH7.4), and coated in 96-well ELISA plate at 100 μL/well overnight at 4° C. The coating solution was poured off. Each well was washed with 1×PBST at 300 μL, washed 4 times with a plate washer, and patted dry on a flat paper. It was blocked with 3% skim milk powder at 300 μL/well, and incubated at 37° C. for 1 h. The blocking solution was poured off, washed 4 times with a plate washer, and patted dry on a flat paper. Negative control and positive control were set up. […] The variable region of the antibody sequence of the positive control consists of SEQ ID NO: 15 and SEQ ID NO: 19, with the addition of the constant region of human IgG1 (SEQ ID NO: 46 and SEQ ID NO: 47). The positive control and antibody were diluted to 10 μg/mL with 3% skim milk powder as the starting concentration, and then diluted by 3-fold gradient (11 gradients in total), and a blank well was set up and only the diluent was added. It was incubated at 37° C. for 1 h at 100 μL/well. The liquid in the well was discarded, washed 4 times with a plate washer, and patted dry on a flat paper. Goat anti-human IgG Fc was diluted with 3% skim milk powder at 1:20000, and incubated at 37° C. for 1 h at 100 μL/well. It was washed 6 times with a plate washer, and patted dry on a flat paper. TMB color developing solution was added at 100 μL/well, and wrapped with aluminum foil. Color development was performed at 37° C. in the dark for 8 min. Termination solution 1M HCl was added to terminate the color development reaction at 100 μL/well. Readings were taken at 450 nm on an ELISA reader.

In the next test the target is T3, Human 4-1BB Fc (human, UniProt Q07011 24-186).
T3 construct: same catalogue and lot number as Human 4-1BB His; not shown: Fc
T3 sequence (Q07011 24-186 limits assumed): as above
The test is described as follows: bridging ELISA: Human 4-1BB Fc coated (0.3 ug/mL), antibody titrated, then Human-TNFR2-His (0.3 ug/mL), HRP anti-His detection (Example 4). As for the experimental part: Human 4-1BB Fc (manufacturer: Acro, CAT: 41B-H5258, LOT: 198-2146F1-W6) was diluted to 0.3 μg/mL with a coating solution (1×PBS, pH7.4) and coated into a 96-well ELISA plate at 100 µL/well at 4° C. overnight. The coating solution was poured off. Each well was washed with 1×PBST at 300 μL, washed 4 times with a plate washer, and patted dry on a flat sheet. It was blocked with 3% skim milk powder at 300 μL/well, and incubated at 37° C. for 1 h. The blocking solution was poured off, washed 4 times with a plate washer, and patted dry on a flat sheet. […] Starting at 50 nM, which was used as the initial concentration for 3-fold dilution, a total of 10 gradients were diluted, and a blank well was set up and only the diluent was added. It was incubated at 37° C. for 1 h at 100 μL/well. The liquid in the well was discarded, washed 4 times with a plate washer, and patted dry on a flat paper. Human-TNFR2-His (manufacturer: Sino, CAT: 10417-H08H, LOT: LC15NO0412) was diluted to 0.3 μg/mL, 100 μL was added to each well, and incubated at room temperature for 1 h. The plate was washed 3 times with PBST, and then the HRP-labeled his antibody was diluted with sample diluent at 1:5000, 100 μ L was added to each well, and incubated at room temperature for 1 h. It was washed 6 times with a plate washer, and patted dry on a flat paper. TMB color developing solution was added at 100 μL/well, and wrapped with aluminum foil. Color development was performed at 37° C. in the dark for 8 min. Termination solution 1M HCl was added to terminate the color development reaction at 100 μL/well. Readings were taken at 450 nm on an ELISA reader.

The target of another test is T4, Human TNFR2 mFc (human, UniProt P20333 23-257).
T4 construct: Bought protein; not shown: mFc
T4 sequence (looked up): T1 sequence (looked up)
The test can be described thus: bridging ELISA: Human TNFR2 mFc coated (0.3 ug/mL), antibody titrated, then Human 4-1BB His (0.3 ug/mL), HRP anti-His detection (Example 5). As for the experimental part: Human TNFR2 mFc (manufacturer: Kaixia, CAT: TN-HM3R2, LOT: 031202) was diluted to 0.3 μg/mL with a coating solution (1×PBS, pH7.4) and coated into a 96-well ELISA plate at 100 μL/well at 4° C. overnight. The coating solution was poured off. Each well was washed with 1×PBST at 300 μL, washed 4 times with a plate washer, and patted dry on a flat paper. It was blocked with 3% skim milk powder at 300 μL/well, and incubated at 37° C. for 1 h. The blocking solution was poured off, washed 4 times with a plate washer, and patted dry on a flat paper. […] Starting at 50 nM, which was used as the initial concentration for 3-fold dilution, a total of 10 gradients were diluted, and a blank well was set up and only the diluent was added. It was incubated at 37° C. for 1 h at 100 µL/well. The liquid in the well was discarded, washed 4 times with a plate washer, and patted dry on a flat paper. Human 4-1BB His (manufacturer: Acro, CAT: 41B-H5258, LOT: 198-2146F1-W6) was diluted to 0.3 μg/mL, 100 μL was added to each well, and incubated at room temperature for 1 h. The plate was washed 3 times with PBST, and then the HRP-labeled his antibody was diluted with sample diluent at 1:5000, 100 μ L was added to each well, and incubated at room temperature for 1 h. It was washed 6 times with a plate washer, and patted dry on a flat paper. TMB color developing solution was added at 100 μL/well, and wrapped with aluminum foil. Color development was performed at 37° C. in the dark for 8 min. Termination solution 1M HCl was added to terminate the color development reaction at 100 μL/well. Readings were taken at 450 nm on an ELISA reader.

Test [3] concerns the target T1, Human-TNFR2-His. The test is described as follows: ELISA: Human-TNFR2-His coated (0.1 ug/mL), antibody titrated, goat anti-human IgG Fc detection (Example 2). The procedure:
as §1
This is another data set of the same source.

Test [4] addresses T2, Human 4-1BB His. The test can be described thus: ELISA: Human 4-1BB His coated (0.2 ug/mL), antibody titrated, goat anti-human IgG Fc detection (Example 3). The procedure: as §2
This is another data set of the same source.

The target of test [5] is T1, Human-TNFR2-His. The test can be described thus: ELISA: Human-TNFR2-His coated (0.1 ug/mL), antibody titrated, goat anti-human IgG Fc detection (Example 2). As for the experimental part: as §1
This is another data set of the same source.

Test [6] has as its target T2, Human 4-1BB His. The test can be described thus: ELISA: Human 4-1BB His coated (0.2 ug/mL), antibody titrated, goat anti-human IgG Fc detection (Example 3). As for the experimental part: as §2
The source holds these as a separate data set.

Test [7] concerns the target T1, Human-TNFR2-His. The test can be described thus: ELISA: Human-TNFR2-His coated (0.1 ug/mL), antibody titrated, goat anti-human IgG Fc detection (Example 2). The procedure:
as §1
This is another data set of the same source.

The results in this text go back to patent publication US20260049151A1 (SHENGHE CHINA BIOPHARMACEUTICAL, published 2026).

What is called EC50 (read off the curve) is the concentration giving half of the maximal effect. The low end stands for greater potency, the high end for weaker potency.

Like-named read-outs stand apart in the source and are kept apart here.

B1: Antibody G (bispecific antibody, human IgG1, kappa)
light: DIVMTQSPATLSVSPGERATLSCKASQNVGSNVDWYQQKPGQSPRVLIYKASIRYTGIPARFSGSGSGTEFTLTISILQSEDFAVYFCMQSKSYPITFGQGTKLEIKRTVAAPSVFIFPPSDEQLKSGTASVVCLLNNFYPREAKVQWKVDNALQSGNSQESVTEQDSKDSTYSLSSTLTLSKADYEKHKVYACEVTHQGLSSPVTKSFNRGEC
heavy: not shown
notes: IgG1 subtype; full-length TNFR2 antibody with 4-1BB scFv at the N-terminus of the heavy chains
On to B1, for which the “EC50 (read off the curve)” value with Human-TNFR2-His [1] is ~0.1 nM; in the test with Human 4-1BB His [2], ~0.07 nM; in the test with Human 4-1BB Fc it was ~0.5 nM; with Human TNFR2 mFc it was ~0.2 nM.

B2: Antibody E2 (bispecific antibody, human IgG4 S228P, kappa)
light: B1 light
heavy: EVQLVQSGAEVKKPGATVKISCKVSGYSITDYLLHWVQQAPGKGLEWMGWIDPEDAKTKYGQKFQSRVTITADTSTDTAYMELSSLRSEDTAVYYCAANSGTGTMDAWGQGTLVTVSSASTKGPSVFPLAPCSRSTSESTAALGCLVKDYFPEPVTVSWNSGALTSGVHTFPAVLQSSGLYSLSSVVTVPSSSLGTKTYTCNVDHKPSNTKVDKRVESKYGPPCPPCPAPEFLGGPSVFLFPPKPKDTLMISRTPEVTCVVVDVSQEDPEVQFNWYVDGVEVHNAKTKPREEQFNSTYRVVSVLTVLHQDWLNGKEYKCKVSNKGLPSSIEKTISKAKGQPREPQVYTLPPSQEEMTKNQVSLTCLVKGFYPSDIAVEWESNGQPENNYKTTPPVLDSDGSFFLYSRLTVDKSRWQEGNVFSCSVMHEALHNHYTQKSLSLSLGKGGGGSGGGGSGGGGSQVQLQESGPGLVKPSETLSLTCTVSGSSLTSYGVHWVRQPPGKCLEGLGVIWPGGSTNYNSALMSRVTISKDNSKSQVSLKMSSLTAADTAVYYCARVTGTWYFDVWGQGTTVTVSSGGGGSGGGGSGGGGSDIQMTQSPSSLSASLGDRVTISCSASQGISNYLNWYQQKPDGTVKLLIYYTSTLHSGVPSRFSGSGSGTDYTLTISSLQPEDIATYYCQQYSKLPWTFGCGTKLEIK
notes: IgG4 subtype; same order as E1
For the molecule B2, the results for the “EC50 (read off the curve)” value in the test with Human-TNFR2-His [3] and in the test with Human 4-1BB His [4] were ~0.2 nM and 0.3 to 0.4 nM, respectively.

B3: Antibody K (bispecific antibody, human IgG1, kappa)
light: DIQMTQSPSSLSASLGDRVTISCSASQGISNYLNWYQQKPDGTVKLLIYYTSTLHSGVPSRFSGSGSGTDYTLTISSLQPEDIATYYCQQYSKLPWTFGGGTKLEIKRTVAAPSVFIFPPSDEQLKSGTASVVCLLNNFYPREAKVQWKVDNALQSGNSQESVTEQDSKDSTYSLSSTLTLSKADYEKHKVYACEVTHQGLSSPVTKSFNRGECGGGGSGGGGSEVQLVESGGGLVQPGGSLRLSCAASGSRLDYYAVAWFRQAPGKEREEVSCITYSGGSTNYAESVKGRFTISRDNSKNTLYLQMNSLRAEDTAVYYCTTEPYGSSCPLSGYDTWGQGTLVTVSS
heavy: not shown
notes: IgG1 subtype; full-length 4-1BB antibody with TNFR2 VHH at the C-terminus of the light chains
With B3, the “EC50 (read off the curve)” value with Human-TNFR2-His [5] is ~0.6 nM; with Human 4-1BB His [6] it was ~0.1 nM; with Human 4-1BB Fc, ~0.3 nM; in the test with Human TNFR2 mFc, ~0.2 nM.

B4: Antibody N (bispecific antibody, human IgG1, kappa)
light: EVQLVESGGGLVQPGGSLRLSCAASGSRLDYYAVAWFRQAPGKEREEVSCITYSGGSTNYAESVKGRFTISRDNSKNTLYLQMNSLRAEDTAVYYCTTEPYGSSCPLSGYDTWGQGTLVTVSSGGGGSGGGGSGGGGSDIQMTQSPSSLSASLGDRVTISCSASQGISNYLNWYQQKPDGTVKLLIYYTSTLHSGVPSRFSGSGSGTDYTLTISSLQPEDIATYYCQQYSKLPWTFGGGTKLEIKRTVAAPSVFIFPPSDEQLKSGTASVVCLLNNFYPREAKVQWKVDNALQSGNSQESVTEQDSKDSTYSLSSTLTLSKADYEKHKVYACEVTHQGLSSPVTKSFNRGEC
heavy: not shown
notes: IgG1 subtype; full-length 4-1BB antibody with TNFR2 VHH at the N-terminus of the light chains
Consider B4, for which the “EC50 (read off the curve)” value in the test with Human-TNFR2-His [7] was ~0.1 nM; in the test with Human 4-1BB His [6], ~0.3 nM; with Human 4-1BB Fc it was ~0.3 nM.
